Laboratory results published in the nanobody polyreactivity screen of Harvey et al. (2022).

Assay: yeast display, Sf9 membrane polyspecificity reagent, FACS + sequencing; frameworks hold sequencing errors
Procedure, shortened: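 Polyreactivity labels are assigned by the sorting gate from which each nanobody was recovered. The gates were low and high (top ~1%), set on anti-HA fluorescence for expression and streptavidin fluorescence for reagent binding. Before sorting, galactose-induced (36–48 hours) yeast display cells were stained for 1 hour at 4 °C with 10% biotinylated, detergent-solubilized Sf9 membrane reagent.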

Sequence	polyreactivity (PSR sort gate)
QLQLVESGGGLVQAGGSLRLSCAASGNIFNYYAMGWYRQATGKERELVAAIRSGARTSYADSVKGRFTISRDNAKNTVYLQMNSLKPEDTAVYYCAASRFRWVQRDDYWGQGTQVTVSS	high polyreactivity
QLQLVESGGGLVQAGGSLRLSCAASGNNIVFYAMGRYRQAPGKERELVAAMTSGGSTNYADSVKGRFTISRDNAKNTVYLQMNSLKPEATAVYYCAARQWFAHRRWGGSRYDYWGQGTQGTVSS	low polyreactivity
QLQLVESGGGLVQAGGSLRLSCAASGRIRYIAIGWYRQAPWKERELVAAITSSGGSTYYADSVKGRFTISRDNAKYTVDLQMNRLKPEDTAVYYCNAVASLSVDYWGQGTQVTVSS	high polyreactivity
QLQLVESGGGLVQAGGSLRLSCAASGRIVKYDMGWYRQAPGKERELVAAISGSGGTTNYADSVKGRFTISRDNAKNTVYLKLNSLKPEETAVYYCAASRPRPPSSRRMDYWGQGTQVTVSS	high polyreactivity
QLQLVESGGGLVQAGGSLRLSCAASGRTFFGYAMGWYSQAPGKERELVATIDGSDGSTFYADSGKGRFTISRDNAKNTVYLQMNSLKPEDTAVYYCAAENFWQTKEYDYWGQGTQVTVSS	low polyreactivity
QLQLVESGGGLVQAGGSLRLSCAASGRTFRINTMGWYRPAPGKERELVATITGSGGSTYYADSVKGRFTISRDNAKNTVYLQMNSLKPEDTAVYYCAAVGDQNEYDYWGQGTQVTVSS	low polyreactivity
QLQLVESGGGLVQAGGSLRLSCAASGRTFVSIALGWYRQAPGKERELFAGINWTDDSTYYADSVKGRFTISRDNAKHSVYLQMNCLKPEDTAVYYCAADQQDGLWDYQDWYDYWGPGTQVTVSS	low polyreactivity
QLQLVESGGGLVQAGGSLRLSCAASGRTFWYYTMGWYRQAPGKERELVAAISSGGRTNYADSVKGRFTISLDNAKNTVYLQMNSLKPEDTAVYYCATSRYYKYVERDYWGQGTLVTVSS	high polyreactivity
QLQLVESGGGLVQAGGSLRLSCAASGRTFYVNAMGWYRQAHGKERELVARISSSGITYYAVSVKGRFTISRDNAKNTVYLQMNSLKPEDTAVYYCAAGPWFYYWGQGTQVTVSS	low polyreactivity
QLQLVESGGGLVQAGGSLRLSCAASGRTSRRYAMGWYRQAPGKERELVAAIRGSGGSTYYADSVKGRFTISRDNAKNTVYLQMNSLKPEDTAVYYCAADWSFWSLAYPSAKFYAEFDYWGQGTQVTVSS	high polyreactivity
QLQLVESGGGLVQAGGSLRLSCAASGSIFDQNAMGWYRHAPGKERELVAAISKSGGSTYYADSVKGRFTISRDNAKNTVYLQLNSLKPEDTAVYYCAARYHYPGNWYNYWGQGTQVTVSS	low polyreactivity
QLQLVESGGGLVQAGGSLRLSCAASGSIFGGYAMGWYRQAPGKERELVAAITGTDTTNYADSVKGRFTISRDNAKNTVYLQMNSLKPEDTAVFYCNADYQPVAAVYNYDYWGQGTQVTVSS	low polyreactivity
QLQLVESGGGLVQAGGSLRLSCAASGSIFHGNVMGRYRHAPGKEMELVAAISSSGGSTYYADSVKGRFTISRDIAKNTVYLQMNSLKPEDNAVYYCAARNRYWGQGTQVTVSS	high polyreactivity
QLQLVESGGGLVQAGGSLRLSCAASGSIFLIYDMGWYRQAPGKEMELVAAISNSVGSTYADSVKGRFTISRDNAKNTVYLQMNSLKPEDTAVYYCNADSGPIDGRGGYWGQGTQVTVSS	low polyreactivity
QLQLVESGGGLVQAGGSLRLSCAASGSIFRWYTMGWYRQAPGKERELVAAISSGGSTNYADSVKGRFTISRDNAKNTVYLQMNSLKPEDTAVYYCAARAIYKSKYDYWGQGTQVTVSS	high polyreactivity
QLQLVESGGGLVQAGGSLRLSCAASGSIFYGYAKGWYRQAPGTERELVAAINTSGGSTFYADSVKGRFTISRDNANNTVYLQMNSLKPEDTAVYYCAAERYRYRSTDTMGYWGQGTQVTVSS	low polyreactivity
QLQLVESGGGLVQAGGSLRLSCAASGSILSRYAMGWYRQAPGKEMELVAGITRGGSTNYADSVKGRFTISRDNAKNTVYLHMNSLKPEDTAVYYGAKASRRFLTLGYDYWGQGTQVTVSS	high polyreactivity
QLQLVESGGGLVQAGGSLRLSCAASGSTFGPYTMGWYRQAPGKERELVATISSGGSTYYADSVKGRFTISRDNAKNTVYLQMNSLKPEDTAVYYCAARYWSIYDYWGQGTQVTVSS	low polyreactivity
QLQLVESGGGLVQAGGSLRLSCAASGSTFPLYAMGWYRQSPGKERELVASITTGGGNTYYADSVKGRFTISRDNAKNTVYLKMNSLKPEDTAVDYCAKPYHIGLSGRRTYDYWGQGTQVTVSS	high polyreactivity
QLQLVESGGGLVQAGGSLRLSCAASVFTLRGYAMGWYRQATCKERELVADISGGGSTDYADSVKVRFTISRDNAKNTVYLQMNSLKPEDTAVYYCAAYGYLWWEMDYWGQGTQVTVSS	high polyreactivity
QLQLVESGGGLVQAGGSLRLSCAHSGRTFYVNAIGWSRQAPRKERELVATITDRGGRSYYADSVKGRFTISRDNAKNSVYLQMTSLKPEDTAVYYCAATRWYEVDYWGQGTQVTVSS	low polyreactivity
QLQLVESGGGLVQAGGSLRLSCAPSGYTFYLYAMGWYRQAPGKARELDAAISNRGGSTYYADSVKGRFTISRDNAKNTVYLQMKSLKPEDTAFYYCAATVGKAGGRYYDRRYYWGQGTQVTVSS	high polyreactivity

Sequence	polyreactivity (PSR sort gate)
QLQLVESGGGLVQAGGSLRLSCASGLTFYWYAMGWYRQAPGKERELVAAINVRGGSTYYADSVKGRFTISRDNAKNTVYLQMNSLKPEDTAGYDCASYYPGFSYRYDYWGQGSQVTVSS	low polyreactivity
QLQLVESGGGLVQAGGSLRLSCASSGFTLTYAMGWDRQAPGKERELVAAISSSGVRTYYADSVKGRFTISRDNAKNTVYLQKNSLKPEDTALYYCNAFIHGSRSYISDYYWGQGTQVTVSS	high polyreactivity
QLQLVESGGGLVQAGGSLRLSSAASGRTFRWNAMGWYRQAPGKERELVAAISSGGSTYYADSVKGRFTISRDNAKNTVYLQMNSLKPEDTAVYYCAKTSFKYRWSYPVISMDYWGQGTQVTVSS	high polyreactivity
QLQLVESGGGLVQAGGSLRLSSAPSGITLQYYAMGWYRQAPGKERELVAAISYRGGRTYYADSVKGRFTISRDNAKNTVYLQMNSLKPEDTAGYYCARRSSKPSSIQYYYWGQGTQVTVSS	high polyreactivity
QLQLVESGGGLVQAGGSLSLSCAASGSIFNSKRMGWYRPAPGKERELVAAITGGGSTNYADSVKGRFTISRDNAKNTVYLQMNSLKPEDTAVYYCAADYPPTFYYWYEEYEYWGQGTQVTVSS	low polyreactivity
QLQLVESGGRLVQAGGSLRLSCAASGRIFYANAMGWYRQAPGKERELVAAISSGGSTYYADSVKGRFTISRDNAKNTVLLQMNSLKPEDTAVYYCAVYTHKKVRPEYDYWGQGTQVTVSS	low polyreactivity
QLQLVESGRGLVQAGGSLRLRCAASGRTFNRYTMGGYRQAPGKERELVAAISRGAGTNYADSVKGRFTISRDNAKYTVYLQMKSLKPEDTAVYYCAAGYEIGYRTGRSGNTAHIYYWGQGTQVTVSS	high polyreactivity
QLQLVESGRGLVQAGGSLRLSCAASGIIFYYNAMGWYRQAPGKERELVARITWRAGSTYYADSVKGRFTISRDNAKNTVYLQMNSLKPEDTAVYYCAARFTTTGPRGYYYWGQGTQVTVSS	high polyreactivity
QLQLVESRGGLVQAGGSLRLSCASSGFIFKQNAMGWYRQAPGNERELVAAISVSGGSTYYADSVKGRFTISRDNAKNTVYLQMNSLKPEYSAVYYCNTRDRGDVVTGLDYWGQGTQVTVSS	low polyreactivity
QLQLVETGGGLVQAGGSLRLSCAASGRIYYGYAMGWYRPAPGKERELVAAISWSGGSTYYADSVKGRFTISRDNAKNTVYLQMNSLKPEDTAVYYCARDAPYLYRAFDYWGQGTQVTVSS	high polyreactivity
QLQLVETGGGLVQAGGSLRLSCAASGYIFVYNDMGWSRQAPGKERELVAAITFSGGITYYADSVKGRFTISRDNAKNTVYLQMNSLKPEDTAVYYCAAADYWFYYGYYLTMDYWGQGTQVTVSS	low polyreactivity
QQLQESGGGLVQAGGSLRLSCAASGSISGSVLMGLYRQAPGKEREFVASISLGGNTNYADSVKGRFTISRENGKITVFLQMNSLKPEVAAVYYCAAYISLFETHPYWGQGTQVTVRS	high polyreactivity
QVDLVESAGGLVQAGGSLRLSCAASGSIFPGYTMGWYRQAPGQERELVAAISRRGGSTYYADSVKGRFTISRDNAKNTVYLQMNSLIPEDTAVYYCAIVPDYRFEYWGQGSQVTVSS	high polyreactivity
QVELVDSGGGLVQAGGILRLSCPASGSTIPTNVMGWSRQAPGKERECVAAITWSVGSTYYADSVKGRFTISRDNAKNTVYLQMNSLKPEDTAVYYCTADSQVLSAPDDYWGQGTQVTVSS	low polyreactivity
QVELVESGGGLGQAGGSLRLSCAASGSTFASNTLGWYRQAPGKEREVVAAITQSGGTTYYADSVKGRFTISRDNAKNTVFLQMNSLKPEDTAVYYDYWGQGTQVTVSS	low polyreactivity
QVELVESGGGLVQAGGCLRLSCAASGGIFESYAMGWYRRAPGRERELVADSTSGGSTNYADSVKGRFTIAGDNAKNTLYLQMNSLKPEDTAVYYCAKEFYYSVGVNLGDSWGQGTQGTVSS	low polyreactivity
QVELVESGGGLVQAGGILRLSCAASGSTFSIYAMGWYRQGPGKERELVAAISGDGITKYADSVKGRFTISRDNAKNTVYLQMNSLKPEDTAVYYCNAHELTDDGKMDSWGQGTQVTVSS	low polyreactivity
QVELVESGGGLVQAGGSLRLRCAASGLTFYYYPMGWYRQAPGKERELFAAIASVGSTYYADSVKGRFTISRDNATNTVYLQMNSLKPDDTAVYYCAAKSFWWHEDYWGQGTQVTVSS	low polyreactivity
QVELVESGGGLVQAGGSLRLSCAASGFIFTYYAMGWYSQAPWKERELVATISSGGGSTYYADSVKGRFTISRDNAKNTVYLQMYSLNPEDTAVYYCAASRRITGIRYINRYAYWGQGTQVTVSS	high polyreactivity
QVELVESGGGLVQAGGSLRLSCAASGFTFNGTAMGWYRQAPGKDRELVAAMSRGGSPSYADSVKGRFTISRDNAKKTVYLPMNSLKPEATAVYYCAAVSYGRFRRYEYWVQGTQVTVSS	high polyreactivity
QVELVESGGGLVQAGGSLRLSCAASGYIFNYYAMGWYRQAPGKERELVAAISTSGGSTYYADSVKGRFTISRDNAKNTVYLQMNSLKPEDTAVYYCAAVDYKANGYGYWGQGTQVTVSS	high polyreactivity
